Reference: patent publication US6579695B1

Key:
[1] = target: Rhizobial NodF (wild-type) (Rhizobial)
[2] = target: Lactobacillus casei D-Alanyl carrier protein, apo-form (apo-Dcp) (Lactobacillus casei)
[3] = target: E. coli acyl carrier protein, apo-form (apo-ACP) (E. coli) (UniProt P0A6A8)
[4] = target: N-terminal hexa-histidine-tagged SrfB1 domain of surfactin synthetase, apo-form (His6-SrfB1) (Bacillus subtilis) (UniProt Q04747)

Substance: E. coli holo-acyl carrier protein synthase (ACPS) (enzyme)
- [3H]phosphopantetheine incorporated, in vitro phosphopantetheinylation (ACP-NodF chimera): 122000 dpm
- % conversion, in vitro phosphopantetheinylation with [3H]CoA [1]: 47%
- radioactivity incorporated into the protein fraction, 36 hour in vitro phosphopantetheinylation [2]: 1.04e+06
- Km for apo-ACP, [3H]CoA radioassay [3]: < 1 µM
- apparent kcat of phosphopantetheinyl transfer, [3H]CoA radioassay [3]: 0.167 s⁻¹

Substance: Bacillus subtilis Sfp (enzyme)
- [14C]-L-valine-holo-SrfB1 covalent complex formed after preincubation of apo-SrfB1 with Sfp and CoASH [4]: 14 fold
